Measured values reported in article PMC4176334.

Key:
[1] = biological target: T1, M. tuberculosis RNAP core;SigJ (Mycobacterium tuberculosis;Mycobacterium tuberculosis H37Rv?) (UniProt P9WGZ1+P9WGY9+P9WGY7+P9WGY5+L0TCG5); assay: KMnO4 footprinting
[2] = biological target: T2, M. tuberculosis RNAP core;SigJ;RbpA (Mycobacterium tuberculosis;Mycobacterium tuberculosis H37Rv?;Mycobacterium tuberculosis) (UniProt P9WGZ1+P9WGY9+P9WGY7+P9WGY5+L0TCG5+P9WHJ5); assay: KMnO4 footprinting
[3] = biological target: T1, M. tuberculosis RNAP core;SigJ (Mycobacterium tuberculosis;Mycobacterium tuberculosis H37Rv?); assay: DNase I footprinting
[4] = biological target: T2, M. tuberculosis RNAP core;SigJ;RbpA (Mycobacterium tuberculosis;Mycobacterium tuberculosis H37Rv?;Mycobacterium tuberculosis); assay: DNase I footprinting
[5] = biological target: M. tuberculosis RNAP core;SigA (Mycobacterium tuberculosis;Mycobacterium tuberculosis) (UniProt P9WGZ1+P9WGY9+P9WGY7+P9WGY5+P9WGI1); assay: EMSA
[6] = biological target: M. tuberculosis RNAP core;SigA;RbpA (Mycobacterium tuberculosis;Mycobacterium tuberculosis;Mycobacterium tuberculosis) (UniProt P9WGZ1+P9WGY9+P9WGY7+P9WGY5+P9WGI1+P9WHJ5); assay: EMSA

Measured: binding

GCCCTCCCGCCGACCCATGCTGGAATTCATAACATCAAGGACGAGACAGCCCCGCCGAATGTGACAGCAACCGGCGATTTCAGCGCTCGGCGC (double strand) [sigIP promoter]
binds: [1] | [2] | [3] | [4]

TTGAGTTCTCAAACAACACGCTTGCTTGTTTCCGCCCGCTTCGGGGCAACCCTGCCAGTCTAATACAAATCCGGCAATGGAGTCAAGACCAGGTTCGGTCATCCATAGATATCCATAGGTGACCGTCGCCTAACAGCATACCCGTTCGAT (double strand) [rrnAP3 promoter]
binds: [5] | [6]
